Laboratory results: paper PMC8716947

Test system: T1, KguR (MBP-KguR-His6) (Escherichia coli (uropathogenic, CFT073)), ORF:aaa0ecb8
T1 sequence: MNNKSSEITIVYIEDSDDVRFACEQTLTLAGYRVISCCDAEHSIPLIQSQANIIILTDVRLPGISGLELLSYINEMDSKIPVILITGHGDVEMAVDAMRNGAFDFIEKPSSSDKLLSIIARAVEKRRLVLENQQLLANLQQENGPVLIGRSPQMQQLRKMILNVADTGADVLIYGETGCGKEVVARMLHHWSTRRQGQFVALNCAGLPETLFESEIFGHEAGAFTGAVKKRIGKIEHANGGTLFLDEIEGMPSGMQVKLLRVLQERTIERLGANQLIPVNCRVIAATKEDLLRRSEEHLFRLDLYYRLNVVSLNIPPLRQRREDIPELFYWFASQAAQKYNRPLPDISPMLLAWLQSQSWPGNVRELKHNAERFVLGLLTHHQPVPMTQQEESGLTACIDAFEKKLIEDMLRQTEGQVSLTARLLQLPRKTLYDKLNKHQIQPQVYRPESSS
Assay: EMSA

With “CATTCATCATCCATTGAATGCATTTATATTTATCATCAGTATATTCCCTGAACAATGTTTGCGAGAACCAAAAGAGTGCCATTGTGTGAATGTGTAAGCAGAATAACCGTGGCAATGTGTGGTTTATCGCACAGGTATTCCAAATGTGATCATGCTCTTTTTATGTGACAAATCCGCAGATAATCCTTCCTTTCCCCCGCGGTTGGCGTTATGGTCAGATGGTT (double strand) [PkguS]” the binding was “binds”.
